# Laboratory results published in patent US20180201910.
# T1: ferredoxin encoded by FD gene 1 (Fd5), YP_001864105, Nostoc punctiforme PCC 73102
# T1 chain: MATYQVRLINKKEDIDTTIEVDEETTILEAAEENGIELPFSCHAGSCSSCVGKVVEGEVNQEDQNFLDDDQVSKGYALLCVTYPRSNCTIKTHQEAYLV
# T2: ferredoxin encoded by FD gene 2 (Fd6), YP_001864826, Nostoc punctiforme PCC 73102
# T2 chain: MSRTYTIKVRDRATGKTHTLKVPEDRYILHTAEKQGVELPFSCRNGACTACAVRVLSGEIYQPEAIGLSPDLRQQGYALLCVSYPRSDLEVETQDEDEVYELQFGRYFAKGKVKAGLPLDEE
# T3: ferredoxin encoded by FD gene 3 (Fd7), YP_001865513, Nostoc punctiforme PCC 73102
# T3 chain: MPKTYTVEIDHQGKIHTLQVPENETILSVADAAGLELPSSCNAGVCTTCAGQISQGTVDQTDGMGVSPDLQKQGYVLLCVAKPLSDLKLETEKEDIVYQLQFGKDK
# T4: ferredoxin encoded by FD gene 5 (Fd4), YP_001864061, Nostoc punctiforme PCC 73102
# T4 chain: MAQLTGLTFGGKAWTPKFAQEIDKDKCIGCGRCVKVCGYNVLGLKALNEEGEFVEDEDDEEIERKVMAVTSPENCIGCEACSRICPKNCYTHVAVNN
# Tests used:
# [1] = target: T1, ferredoxin encoded by FD gene 1 (Fd5), …
# [2] = target: T2, ferredoxin encoded by FD gene 2 (Fd6), …
# [3] = target: T3, ferredoxin encoded by FD gene 3 (Fd7), …
# [4] = target: ferredoxin encoded by FD gene 4 (Fd8), YP_001867060, Nostoc punctiforme PCC 73102
# ferredoxin encoded by FD gene 4 (Fd8), YP_001867060, Nostoc punctiforme PCC 73102, sequence (chain, as listed by the source): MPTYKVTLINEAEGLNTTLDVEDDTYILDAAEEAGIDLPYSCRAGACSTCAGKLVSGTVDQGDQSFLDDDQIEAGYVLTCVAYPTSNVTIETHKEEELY
# [5] = target: T4, ferredoxin encoded by FD gene 5 (Fd4), …
Protein,"amount of alkane production 3 days after the initiation of culture compared with the amount of Strain No. 2 (E. coli Rosetta co-expressing decarbonylase and acyl-ACP reductase, GC/MS) [1]","amount of alkane production 3 days after the initiation of culture compared with the amount of Strain No. 2 (E. coli Rosetta co-expressing decarbonylase and acyl-ACP reductase, GC/MS) [2]","amount of alkane production 3 days after the initiation of culture compared with the amount of Strain No. 2 (E. coli Rosetta co-expressing decarbonylase and acyl-ACP reductase, GC/MS) [3]",effects of improving the alkane productivity in the E. coli JM109 strain [3],effects of improving the alkane productivity in the Klebsiella sp. 100048 strain [3],"amount of alkane production 3 days after the initiation of culture compared with the amount of Strain No. 2 (E. coli Rosetta co-expressing decarbonylase and acyl-ACP reductase, GC/MS) [4]","amount of alkane production 3 days after the initiation of culture compared with the amount of Strain No. 2 (E. coli Rosetta co-expressing decarbonylase and acyl-ACP reductase, GC/MS) [5]"
"ferredoxin reductase encoded by FDR gene 2 (FDR2), YP_001866231, Nostoc punctiforme PCC 73102 (protein) MYNQGAVEGAANIELGSRIFVYEVVGLRQGEETDQTNYPIRKSGSVFIRVPYNRMNQEMRRITRLGGTIVSIQPITALEPVNGKASFGNATSVVSELAKSGETANSEGNGKATPVNAHSAEEQNKDKKGNTMTQAKAKKDHGDVPVNTYRPNAPFIGKVISNEPLVKEGGIGIVQHLKFDLSGGDLKYIEGQSIGIIPPGLDKNGKPEKLRLYSIASTRHGDDVDDKTVSLCVRQLEYKHPETGETVYGVCSTHLCFLKPGEEVKITGPVGKEMLLPNDPDANVIMMATGTGIAPMRAYLWRQFKDAERAANPEYQFKGFSWLIFGVPTTPNLLYKEELEEIQQKYPENFRLTAAISREQKNPQGGRMYIQDRVAEHADELWQLIKNEKTHTYICGLRGMEEGIDAALTAAAAKEGVTWSDYQKQLKKAGRWHVETY",1.9 times,2.5 times,3.8 times,two times greater in the E. coli JM109 strain,4 times greater than the effects in the Klebsiella sp. 100048 strain,3.0 times,x
"ferredoxin reductase encoded by FDR gene 3 (FDR3), YP_001868825, Nostoc punctiforme PCC 73102 (protein) MSFTSMPSLREQQHPLIRQLADCIEAAWHQHLDLSPYHLPDELGYVEGRLEGEKLTIENRCYQTPQFRKMHLELANIGNMLDILHCVMFPRPQYNLPMFGCDLVGGRGQISAAIADLSPIQLERTLPESYTTALAQLPVLNFSQPRELPEWGNIFSDFCIFVRPGSPEEEAMFLSRVREFLDIHCMQAIASHPVSVEQVTQNLAGQHNYCTKQQQNDKTRRVLEKAFGPVWAENYMTTVLFDLPT",x,3.4 times,2.0 times,–,–,x,x
"ferredoxin reductase encoded by FDR gene 1 (FDR1), YP_001865390, Nostoc punctiforme PCC 73102 (protein) MNSPVYQTVIVGGGFTGLFTALHLAHEHYPRSVILIDKDERFCFKPLLYEYFDGEMDTFQVVPRFSELLKGSGVIFVQDTVQSINLHQREVKLASGNSYNYSNLVLALGSVTGYHQVEGARENAFPFWTQADAIALDRHLRDCLQKAVQTEDVEQRRKLLTVVIVGGGASGVEMAATLADFLPHWYSALGGNSSEIRVVLLNHGKEILDGDINNPLREIAERELNKRAVPIEMIVEAEATAIGSTSIQYKRNEQIETLATHTTVWTAGTSTHPLIKDLPIPKEHRDRRDRPLVTPNLQLLDFPEVFVGGDCAAVQDNSLPPTAQVAYQQGANIAQNLKALALGEEPKPAKVNIRGTLLKLGINDAAANLFNVFEVVGETAHLIRQGTYLTLLPAPIHDFKATTEWVDEEVFHQHLDPHDVGKKVVQAAEIVGVGVVGILAARKLLKMLGDEDKNSK",2.5 times,2.4 times,x,–,–,2.6 times,x
